{"source": "patent US20200397913A1", "about": "“AXL-SPECIFIC ANTIBODY-DRUG CONJUGATES FOR CANCER TREATMENT” (GENMAB A/S, priority 2015, published 2020)", "molecules": {"B1": {"name": "IgG1-AXL-183-N52Q: point mutant of IgG1-AXL-183, VH SEQ ID NO:17, VL SEQ ID NO:18 (antibody, V domains shown)", "VH": "QVQLQQWGAGLLKPSETLSLTCAVYGGSFSGYYWSWIRQPPGKGLEWIGEIQQSGSTNYNPSLKSRVTISVDTSKNQFSLKLSSVTAADTSVYYCASGNWDHFFDYWGQGTLVTVSS", "VL": "DIQMTQSPSSVSASVGDRVTITCRASQGISSWLAWYQHKPGKAPKLLIYATSSLQSGVTSRFSGSGSGTDFTLTISSLQPEDFATYYCQQAKSFPWTFGQGTKVEIK", "modifications": "homo sapiens"}, "B2": {"name": "IgG1-AXL-733: human IgG1,κ anti-AXL antibody, VH SEQ ID NO:34, VL SEQ ID NO:35; FN1 domain binding (antibody, V domains shown)", "VH": "QVQLVESGGGVVQPGRSLRLSCAASGFSFSTYAMHWVRQAPGKGLEWVAVISYDGDNKYSADSVKGRFTISRDNSKNTLYLQMNSLRAEDTAVYYCARGRKLGIDAFDIWGQGTMVTVSS", "VL": "AIQLTQSPSSLSASVGDRVTITCRASQGISSALAWYQQKPGKAPKLLIYDASSLESGVPSRFSGSGSGTDFTLTISGLQPEDFATYYCQQFNSYPFTFGPGTKVDIK", "modifications": "homo sapiens"}, "B3": {"name": "IgG1-AXL-183: human IgG1,κ anti-AXL antibody, VH SEQ ID NO:16, VL SEQ ID NO:18; FN1 domain binding (antibody, V domains shown)", "VH": "B1 VH with Q52N", "VL": "B1 VL", "modifications": "homo sapiens"}, "B4": {"name": "IgG1-AXL-511: human IgG1,κ anti-AXL antibody, VH SEQ ID NO:136, VL SEQ ID NO:140; Ig2 domain binding (antibody, V domains shown)", "VH": "EVQLLESGGGLVQPGGSLRLSCAASGFTFSSYAMNWVRQAPGKGLEWVSGISGSGGHTYHADSVKGRFTISRDNSKNTLYLQMNSLRAEDTAVYYCAKDRYDILTGYYNLLDYWGQGTLVTVSS", "VL": "DIQMTQSPSSLSASVGDRVTITCRASQGISSWLAWYQQKPEEAPKSLIYAASSLQSGVPSRFSGSGSGTDFTLTISSLQPEDFATYYCQQYNSYPLTFGGGAKVEIK", "modifications": "homo sapiens"}, "B5": {"name": "IgG1-AXL-726: human IgG1,κ anti-AXL antibody, VH SEQ ID NO:31, VL SEQ ID NO:33; FN2 domain binding (antibody, V domains shown)", "VH": "QVQLQQWGAGLLKPSETLSLTCAIDGGSFSGYYWSWIRQPPGKGLEWIGEISHSGRTNYNPSLKSRVTISIDTSKNQFSLKLSSVAAADTAVYYCARFITMIRGAIITHFDYWGQGALVTVSS", "VL": "B4 VL with E42K, N92H, L96Y, G100Q, A102T, V104L", "modifications": "homo sapiens"}, "B6": {"name": "IgG1-AXL-187: human IgG1,κ anti-AXL antibody, VH SEQ ID NO:19, VL SEQ ID NO:20 (antibody, V domains shown)", "VH": "B5 VH with Q3P, I24V, D25Y, Y33H, A86T, R97S, A105T, A117T", "VL": "B4 VL with E42K, N92H, L96Y, G100Q, A102T, V104L", "modifications": "homo sapiens"}, "B7": {"name": "IgG1-AXL-140: human IgG1,κ anti-AXL antibody, VH SEQ ID NO:3, VL SEQ ID NO:4 (antibody, V domains shown)", "VH": "EVQLLESGGGLVQPGGSLRLSCAASGFTFSSYAMTWVRQAPGKGLEWVSAISISGASTFYADSVKGRFTISRDNSKNTLSLQMNSLRAEDTAVYFCRGYSGYVYDAFDIWGQGTMVTVSS", "VL": "B4 VL with S31N, E42K, A102T", "modifications": "homo sapiens"}}, "note": "Where a chain is given by its changes, count along the chain named. Names may count otherwise. Marks after values point to notes of the source that are not given here."}
{"target": "T1, AXLECDHis (extracellular domain of human AXL) (Homo sapiens, UniProt P30530)", "T1 construct": "the extracellular domain (ECD) of human AXL (aa 1-447) with a C-terminal His tag (AXLECDHis); His tag (C); made in house; host or cells: HEK-293F", "experiment": "Binding affinity by Bio-Layer Interferometry (Octet)", "details": "not given"}
{"molecule": "B1", "dissociation rate, fold higher than wild-type IgG1-AXL-183": "approximately 2.5 fold"}
{"target": "T1, AXLECDHis (extracellular domain of human AXL)", "experiment": "Binding affinity by Bio-Layer Interferometry (Octet)", "details": "soluble AXLECDHis, 30° C, 1:1 model", "units": {"Kdis": "s⁻¹", "Kon": "M⁻¹ s⁻¹"}}
{"molecule": "B2", "Kdis": 0.0097, "Kon": 160000}
{"molecule": "B1", "Kdis": 0.001, "Kon": 42000}
{"molecule": "B3", "Kdis": 0.00042, "Kon": 41000}
{"molecule": "B4", "Kdis": 0.0039, "Kon": 170000}
{"molecule": "B5", "Kdis": 0.00013, "Kon": 240000}
{"target": "T2, AXL on A431 cells (Homo sapiens, UniProt P30530)", "T2 construct": "AXL-positive A431 cells were incubated; endogenous in cells; host or cells: A431", "experiment": "Antibody binding to A431 cells with or without Gas6 pre-incubation", "details": "no Gas6 pre-incubation"}
{"molecule": "B2", "Antibody binding to A431 cells: EC50 w/o Gas6 mean (s.d.)": "0.49 (0.51) μg/mL"}
{"molecule": "B3", "Antibody binding to A431 cells: EC50 w/o Gas6 mean (s.d.)": "0.69 (0.72) μg/mL"}
{"molecule": "B4", "Antibody binding to A431 cells: EC50 w/o Gas6 mean (s.d.)": "0.12 (0.11) μg/mL"}
{"molecule": "B5", "Antibody binding to A431 cells: EC50 w/o Gas6 mean (s.d.)": "0.32 (0.35) μg/mL"}
{"target": "T2, AXL on A431 cells", "experiment": "Antibody binding to A431 cells with or without Gas6 pre-incubation", "details": "pre-incubation with 10 μg/mL Gas6"}
{"molecule": "B2", "Antibody binding to A431 cells: EC50 in presence of Gas6 mean (s.d.)": "0.62 (0.23) μg/mL"}
{"molecule": "B3", "Antibody binding to A431 cells: EC50 in presence of Gas6 mean (s.d.)": "1.19 (1.11) μg/mL"}
{"molecule": "B4", "Antibody binding to A431 cells: EC50 in presence of Gas6 mean (s.d.)": "0.30 (0.31) μg/mL"}
{"molecule": "B5", "Antibody binding to A431 cells: EC50 in presence of Gas6 mean (s.d.)": "0.55 (0.69) μg/mL"}
{"target": "T3, human AXL with a cynomolgus monkey extracellular domain (ECD) (Homo sapiens, UniProt P30530, P441T/S191N/S285L/T105A/T112A/T125N/T443A)", "T3 construct": "aa 1-447); expressed in transfected cells; host or cells: HEK293T", "experiment": "Flow cytometry binding to HEK293T cells transfected with human AXL with cynomolgus ECD", "details": "at least 3 experiments"}
{"molecule": "B2", "Binding EC50 cynomolgus AXL Average (s.d.)": "0.254 (0.114) μg/mL"}
{"molecule": "B1", "Binding EC50 cynomolgus AXL Average (s.d.)": "0.324 (0.121) μg/mL"}
{"molecule": "B3", "Binding EC50 cynomolgus AXL Average (s.d.)": "0.309 (0.086) μg/mL"}
{"molecule": "B5", "Binding EC50 cynomolgus AXL Average (s.d.)": "0.349 (0.160) μg/mL"}
{"target": "T4, human AXL transiently expressed by HEK-293F cells (Homo sapiens, UniProt P30530)", "T4 construct": "HEK-293F cells transiently expressing full length human AXL; expressed in transfected cells; host or cells: HEK-293F", "experiment": "Homogeneous antigen specific screening assay (FMAT)", "details": "binding to human AXL on HEK-293F cells", "units": {"Maximal binding": "Arbitrary units"}}
{"molecule": "B6", "Maximal binding": 2563}
{"molecule": "B5", "Maximal binding": 3154}
{"molecule": "B7", "Maximal binding": 2889}
{"test_system": "MDA-MB-231 and Calu-1 cells", "experiment": "Internalization of cell surface bound HuMab-AXL by flow cytometry", "type": "cell-based, human", "details": "1 hour 4° C, then overnight 37° C versus 4° C", "experimental": "Internalization of cell surface bound HuMab-AXL antibodies to MDA-MB-231 and Calu-1 cells (human lung carcinoma cell line; ATCC, catalognumber HTB-54) was evaluated by flow cytometry. 50,000 cells were seeded in 96-well tissue culture plates and allowed to attach for 6 hrs at 37° C. Plates were incubated at 4° C. for 30 minutes before incubation with serial dilutions of AXL-antibodies (final concentration range 0.0032-10 μg/mL) at 4° C. for 1 hour. Subsequently, the medium was replaced by tissue culture medium without antibody and cells were incubated overnight (16-18 hours) at 37° C. or 4° C. […] Finally, cells were washed twice in PBS/0.1% BSA/0.02% azide, resuspended in 120 μL PBS/0.1% BSA/0.02% azide and analyzed on a FACS Cantoll (BD Biosciences).\n(§1) Binding curves were analyzed using non-linear regression (sigmoidal dose-response with variable slope) using GraphPad Prism V5.04 software (GraphPad Software, San Diego, Calif., USA)."}
{"molecule": "B2", "internalization of membrane-bound antibody": "internalize"}
{"molecule": "B1", "internalization of membrane-bound antibody": "internalize"}
{"molecule": "B4", "internalization of membrane-bound antibody": "internalize"}
{"target": "T5, human AXL with a mouse ECD (Mus musculus, UniProt Q00993, A791T/A867T/C878S/D603E/D853E/E609A/F637Y/G606S/G869S/H824Y/L452V/L825P/L872Q/P881A/R785Q/R828P/S823G/S856P/S873P/T871A/V766A)", "T5 construct": "aa 1-441); expressed in transfected cells; host or cells: HEK293T", "T5 sequence (Q00993 19-888 with the stated changes)": "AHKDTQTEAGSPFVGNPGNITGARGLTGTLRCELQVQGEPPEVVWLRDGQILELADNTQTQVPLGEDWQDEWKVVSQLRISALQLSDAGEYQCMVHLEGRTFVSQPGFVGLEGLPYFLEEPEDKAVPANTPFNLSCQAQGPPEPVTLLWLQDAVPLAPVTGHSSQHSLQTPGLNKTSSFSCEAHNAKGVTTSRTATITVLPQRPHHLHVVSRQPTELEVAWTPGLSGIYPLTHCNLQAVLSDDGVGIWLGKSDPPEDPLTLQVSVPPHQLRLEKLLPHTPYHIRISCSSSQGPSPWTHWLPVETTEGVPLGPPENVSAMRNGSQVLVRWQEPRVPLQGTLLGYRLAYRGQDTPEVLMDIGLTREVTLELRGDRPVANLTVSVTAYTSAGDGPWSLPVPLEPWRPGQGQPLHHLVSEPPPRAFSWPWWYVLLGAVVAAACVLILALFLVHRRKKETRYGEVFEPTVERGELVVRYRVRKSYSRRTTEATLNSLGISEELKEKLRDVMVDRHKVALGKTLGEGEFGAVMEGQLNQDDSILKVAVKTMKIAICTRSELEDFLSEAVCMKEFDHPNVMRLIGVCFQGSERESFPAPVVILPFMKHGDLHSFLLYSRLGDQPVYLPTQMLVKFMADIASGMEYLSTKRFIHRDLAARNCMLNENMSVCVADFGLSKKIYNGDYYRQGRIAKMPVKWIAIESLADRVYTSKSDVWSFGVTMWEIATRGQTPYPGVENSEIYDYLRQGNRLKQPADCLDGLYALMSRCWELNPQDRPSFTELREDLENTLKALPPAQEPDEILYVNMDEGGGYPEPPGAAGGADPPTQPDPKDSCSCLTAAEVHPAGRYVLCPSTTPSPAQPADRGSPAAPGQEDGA", "experiment": "Flow cytometry binding to HEK293T cells transfected with human AXL with mouse ECD", "details": "0.0024-10 μg/mL"}
{"molecule": "B2", "binding to AXL with a mouse ECD": "low"}
{"molecule": "B1", "binding to AXL with a mouse ECD": "low"}
{"molecule": "B3", "binding to AXL with a mouse ECD": "low"}
{"molecule": "B5", "binding to AXL with a mouse ECD": "not detectable"}
{"target": "T6, human AXL (Homo sapiens, UniProt P30530)", "T6 construct": "expression constructs for full length human AXL; expressed in transfected cells; host or cells: HEK293T", "experiment": "Flow cytometry binding to HEK293T cells transfected with full length human AXL", "details": "at least 3 experiments"}
{"molecule": "B2", "Binding EC50 human AXL Average (s.d.)": "0.176 (0.094) μg/mL"}
{"molecule": "B1", "Binding EC50 human AXL Average (s.d.)": "0.350 (0.206) μg/mL"}
{"molecule": "B3", "Binding EC50 human AXL Average (s.d.)": "0.526 (0.177) μg/mL"}
{"molecule": "B5", "Binding EC50 human AXL Average (s.d.)": "0.288 (0.206) μg/mL"}
{"target": "Gas6 binding to AXL on A431 cells (Homo sapiens, UniProt P30530)", "experiment": "Gas6 binding to A431 cells pre-incubated with AXL antibodies", "set-up": "endogenous in cells; host or cells: A431", "details": "pre-incubation with 10 μg/mL antibody; control antibody b12", "experimental": "Alternatively, A431 cells were pre-incubated with 10 μg/mL AXL antibodies (15 minutes, 4° C.) to assess if the AXL ligand Gas6 could still bind in presence of AXL antibodies. […] After washing three times in PBS/0.1% BSA/0.02% azide, cells were incubated with mouse anti-Gas6 IgG2a (R&D Systems; cat no. MAB885) at 4° C. for 30 min. After washing three times in PBS/0.1% BSA/0.02% azide, cells were incubated with FITC-labelled goat anti-mouse IgG (Dako, Heverlee, Belgium; cat no. F049702) at 4° C. for 30 min in the dark. Next, cells were washed twice in PBS/0.1% BSA/0.02% azide, resuspended in 120 μL PBS/0.1% BSA/0.02% azide and analyzed on a FACS Cantoll (BD Biosciences).\nas §1\nTherefore, binding of Gas6 to A431 cells that had been pre-incubated with 10 μg/mL AXL antibodies was tested as described in Example 2.", "units": {"Gas6 binding: Maximal binding in presence of AXL antibodies (% of binding in presence of control antibody)": "%"}}
{"molecule": "B2", "Gas6 binding: Maximal binding in presence of AXL antibodies (% of binding in presence of control antibody)": 96}
{"molecule": "B3", "Gas6 binding: Maximal binding in presence of AXL antibodies (% of binding in presence of control antibody)": 115}
{"molecule": "B4", "Gas6 binding: Maximal binding in presence of AXL antibodies (% of binding in presence of control antibody)": 113}
{"molecule": "B5", "Gas6 binding: Maximal binding in presence of AXL antibodies (% of binding in presence of control antibody)": 98}
